Series [1] in a line: Fluorescence dequenching liposome leakage (liposome disruption) assay. Type of series: biochemical. As to the method:
Liposomes composed of DOPC (1,2-dioleoyl-sn-glycero-3-phosphocholine), DOPC with 25% cholesterol (molar ratio to DOPC), 3:1 DOPC:POPS (1-palmitoyl-2-oleoyl-sn-glycero-3-phospho-L-serine), and 3:1 DOPC:POPS with 25% cholesterol were prepared identically to a final concentration of 5 mM total lipid as previously described (32); lipids from Avanti Polar Lipids. Lipids solubilized in chloroform were dried under nitrogen gas and stored under vacuum for a minimum of 2 hours to remove residual solvent. The dried lipid film was the resuspended in Tris buffer (10 mM Tris, 150 mM NaCl, and 0.02% NaN3 pH 8.0) containing 25 mM Sulforhodamine B (SRB) fluorophore (Sigma) and subjected to 10 sequential freeze thaw cycles in liquid nitrogen. Liposomes were extruded 29 times through 100 nm pore size polycarbonate filters (Avanti Polar Lipids) and purified from free fluorophore using a PD-10 gel filtration column (GE Healthcare) into storage buffer (10 mM Tris, 150 mM NaCl, and 0.02% NaN3 pH 8.0). Liposome size and homogeneity was analyzed by dynamic light scattering (DLS) using a Dynapro Nanostar™ DLS (Wyatt Technologies). On average liposome diameter ranged from 120-130 nm with low polydispersity. Liposomes were stored at 4° C. and used within 5 days of preparation.
Liposome disruption and content leakage was analyzed by fluorescence spectroscopy as previously described (32). […] The solution was rapidly acidified to the target pH by addition of a fixed volume of acidification buffer and incubated for 20 minutes. […] SRB fluorescence is independent of pH within the ranges used here. Finally. Triton X-100 (Sigma) was added to a final concentration of 1% to fully disrupt liposomes. Liposome disruption as indicated by content leakage and SRB dequenching was normalized using the formula [Fω−F(0)]/[F(Max)−F(0)] where F(0) is the average fluorescence intensity before acidification and F(Max) is the average fluorescence intensity ater addition of Triton X-100. All measurements were collected on a Varian Cary Eclipse spectrophotometer using an excitation/emission pairing of […] and 2.5 nm slit widths at 24° C. Any data plotted together was collected using the sum batch of liposomes.

A short description of series [2]: Native mass spectrometry of pH-induced changes in oligomeric state. Type of series: physicochemical. The conditions noted are these: for cooperativity of the pH-induced transition: native MS at different pH values; for pH transition point of disassembly (pH set point, pH0): evaluated from pH 7 down to pH 3; for reversibility of disassembly: pH lowered with acetic acid, then raised by ammonia or buffer exchange. As for the experimental part:
Samples were buffer exchanged twice into 200 mM ammonium acetate (NH4Ac; MilliporeSigma) using Micro Bio-Spin P-6 columns (Bio-Rad). Protein concentrations were determined by UV absorbance using a Nanodrop 2000c spectrophotometer (Thermo Fisher Scientific) and diluted to make up a 10-fold stock solution (50 μM and 16.7 μM monomer and trimer concentration, respectively). 1 μL of this solution was mixed with 9 μL 200 mM NH4Ac/50 mM triethylammonium acetate (TEAA; MilliporeSigma), adjusted with acetic acid (Fisher Scientific) to obtain the desired final pH and incubated on ice for 30 min. […] 5 μL samples were filled into an in-house pulled glass capillary and ionized by nESI at a monomer or a trimer concentration of 5 μM or 1.67 μM respectively. All pH titration data were acquired on an in-house modified SYNAPT® G2 HDMS (Waters Corporation) with a surface-induced dissociation (SID) device incorporated between a truncated trap traveling wave ion guide and the ion mobility cell (39). The following instrument parameters were used spray voltage 0.9-1.3 kV; sampling cone, 20 V; extraction cone, 2 V; source temperature, room temperature; trap gas flow, 4 mL/min; trap bins, 45V. The data were processed with MassLynx™ v4.1 and DriftScope™ v2.1. For relative quantification, charge state series were extracted from DriftScope™, and smoothed spectra (mean; window 20; number of smooths 20) were integrated.
Python scripts were written to generate theoretical models according Equation 1, and curve-fitting to native mass spectrometry data (FIGS. 1, 3, 5) according to Equation 2 by nonlinear least squares using curve fit from scipy.optimize. The free energy estimates for individual n, m, and l layers used in Equation 1 modeling were estimated by solving linear equations as follows: values for the free energy of folding for designs pRO-2 and variants were estimated from GdmCl denaturation experiments (FIG. 11); each of these designs have different numbers of n, m, and l layers, thus series of linear equations relating the number of each layer type to the total free energies of folding were solved to estimate dG values of the individual layers of each type.

Where [3] appears, read: fused at its n-terminus to a nanoparticle.

Substitutions are numbered along the chain they refer to. Numbers in names are those of the source. Entries after “also recorded” stand apart in the source; their conditions may differ.

B1: SEQ ID NO: 37: pRO2.3, single-chain, GS linkers on all loops, asymmetrized, TEV site opposite to the termini direction (protein)
chain: GSEEEIKRLLEELRKSSEELRRITKELDDLSKELRVGGSGSGSEMLVEHNKLISEHNRIIVENNRIIVEILEAIARVGGSGSGSVEVERILDELRKSSEELDRVTKELKKLTEELDVGGSENLYFQGSGSVEALVRHNVLITRHNDIIVKNNDIINKILKLIAEAVGGSGSGSELERILRELEESTKELRKATEELRRLSEELKVGGSGSGSVEALVRHNEAIVEHNKIIVKNNDIIVKILELITERI
For B1, the “liposome disruption relative to pRO2.3, nanoparticle fusion” value in series [1] (setting [3]) is given as “as well as pRO2.3”. In addition, in series [1] (linked-pH trimer), the “kinetics of dissociation in the liposome assay” value is given as “slower”. Further, in series [1] (linked-pH trimer, order of minutes), the “membrane disruption level (dye leakage over time)” value is “same membrane disruption levels”.

B2: pRO-2.3-GS: pRO-2.3 with flexible GS loop, SEQ ID NO: 35-36 (protein)
chain 1: MGSHHHHHHGSGSENLYFQGSEYEIRKALEELKASTAELKRATASLRAITEELKKGGSGSGSEDALVEHNRAIVEHNAIIVENNRIIAAVLELIVRAIK
chain 2: GSEYEIRKALEELKASTAELKRATASLRAITEELKKGGSGSGSEDALVEHNRAIVEHNAIIVENNRIIAAVLELIVRAIK
For B2, the “oligomeric state at pH 7 / neutral pH” value in series [2] (native MS) is listed as “retains its trimeric assembly at neutral pH”. The “cooperativity of the pH-induced transition” value in series [2] was “less cooperativity”.

B3: pRO-2-GS: pRO-2 with flexible GS loop, SEQ ID NO: 33-34 (protein)
chain 1: B2 chain 1 with S35A, N83H
chain 2: B2 chain 2 with S16A, N64H
For B3, the “oligomeric state at pH 7 / neutral pH” value in series [2] (native MS) is “loses its homogenous trimeric assembly at neutral pH”.

B4: pRO-4: designed heterodimer, SEQ ID NO: 27-28, chains 81 and 82 (protein)
chain 1: MDEEDHLKKLKTHLEKLERHLKLLEDHAKKLEDILKERPEDSAVKESIDELRRSIELVRESIEIFRQSVEEEEGSSHHHHHHSSGENLYFQGDVKELTKILDTLTKILETATKVIKDATKLLEEHRKSDKPDPRLIETHKKLVEEHETLVRQHKELAEEHLKRTR
chain 2: MDEEDHLKKLKTHLEKLERHLKLLEDHAKKLEDILKERPEDSAVKESIDELRRSIELVRESIEIFRQSVEEEEGDVKELTKILDTLTKILETATKVIKDATKLLEEHRKSDKPDPRLIETHKKLVEEHETLVRQHKELAEEHLKRTR
chain 3: MDEEDHLKKLKTHLEKLERHLKLLEDHAKKLEDILKERPEDSAVKESIDELRRSIELVRESIEIFRQSVEEEE
chain 4: GSSHHHHHHSSGENLYFQGDVKELTKILDTLTKILETATKVIKDATKLLEEHRKSDKPDPRLIETHKKLVEEHETLVRQHKELAEEHLKRTR
modifications: Synthetic polpypeptide; (1)..(18) Optional residues
As for B4, the “pH transition point of disassembly (pH set point, pH0)” value (from here on “pH transition point of disassembly”) in series [2] (native MS) is given as roughly 4 pH.

B5: pRO-4 L23A/V130A: pRO-4 mutant heterodimer, SEQ ID NO: 29-30, 83-84 (protein)
chain 1: B4 chain 1 with L24A, V150A
chain 2: B4 chain 2 with L24A, V132A
chain 3: B4 chain 3 with L24A
chain 4: B4 chain 4 with V77A
modifications: Synthetic polpypeptide; (1)..(18) Optional residues
As for B5, the “pH transition point of disassembly” value in series [2] (native MS) is roughly 4.6 pH.

B6: SEQ ID NO: 38: similar to pRO2.3, TEV site parallel to the termini, aromatic residues on the n-terminal helix (protein)
chain: GSEEEIKRLLEELRKSSEELRRITKELDDLSKELRVGGSGSGSEMLVEHNKLISEHNRIIVENNRIIVEILEAIARVGGSGSGSVEVERILDELRKSSEELDRVTKELKKLTEELDVGGSGSGSVEALVRHNVLITRHNDIIVKNNDIINKILKLIGEAVGGSENLYFQGSGSEFERWLRQLEESTKELRKFTEELRRFSEELKVGGSGSGSVEALVRHNEAIVEHNKAIVKNNDIIVKILELVTERI
For B6, in series [1] (compared with pRO2.3 homotrimer), the “liposome disruption better than the pRO2.3 homotrimer” value was 5-10%.

B7: SEQ ID NO: 39: similar to pRO2.3, Thrombin cleavage sites on each loop, destabilizing I56V mutation (protein)
chain: GSEEEIKRLLEELRKSSEELRRITKELDDLSKELRVGGSGSGSLVPRGSGSGSGSHALVEHNKLISEHNRIVVENNRIIVEILEAIARVGGSGSGSVEVERILDELRKSSEELDRVTKELKKLTEELDVGGSGSGSLVPRGSGSGSGSVEALVRHNVLITRHNDIVVKNNDIINKILKLIAEAVGGSGSGSELERILRELEESTKELRKATEELRRLSEELKVGGSGSGSLVPRGSGSGSGSHEALVRHNEAIVEHNKIVVKNNDIIVKILELITERI
On to B7, for which, in series [1] (setting [3]), the “kinetics of liposome disruption relative to pRO2.3, nanoparticle fusion” value is “slower kinetics” and the “liposome disruption relative to pRO2.3, nanoparticle fusion” value was “close as well as pRO2.3”.

B8: pRO-2.1: pRO-2 variant, SEQ ID NO: 3-4 (protein)
chain 1: MGSHHHHHHGSGSENLYFQGSEYEIRKALEELKAALAELKRATASLRAITEELKKNPSEDALVEHNRAIVEHNAIIVEVLRIIAAVLELIVRAIK
chain 2: SEYEIRKALEELKAALAELKRATASLRAITEELKKNPSEDALVEHNRAIVEHNAIIVEVLRIIAAVLELIVRAIK
Regarding B8, in series [2] (native MS), the “pH transition point of disassembly” value is roughly 3.5 pH.

B9: pRO-2.4: pRO-2 variant, SEQ ID NO: 9-10 (protein)
chain 1: B8 chain 1 with L36T, I49S, H65N, A68L, V79H, L80N
chain 2: B8 chain 2 with L16T, I29S, H45N, A48L, V59H, L60N
Turning to B9, in series [2], the “cooperativity of the pH-induced transition” value is “less cooperative” and the reversibility of disassembly entry is recorded as “Re-association was induced”. In series [2] (native MS), the “pH transition point of disassembly” value is “higher transition pH”.

B10: pRO-2.2: pRO-2 variant, SEQ ID NO: 5-6 (protein)
chain 1: B8 chain 1 with T50L, L62I, H65A, N66I
chain 2: B8 chain 2 with T30L, L42I, H45A, N46I
For the molecule B10, the “pH response of oligomeric state (pH-induced disassembly)” value in series [2] (native MS, pH ~7 to ~3) was “eliminates the pH response altogether; also recorded: no significant pH response”.

B11: pRO-2.3: pRO-2 variant, SEQ ID NO: 7-8 (protein)
chain 1: B8 chain 1 with A35S, L36T, V79N, L80N
chain 2: B8 chain 2 with A15S, L16T, V59N, L60N
As for B11, the reversibility of disassembly result in series [2] was “Re-association was induced”.
